Data as given in US20160193299A1, “MODIFIED NUCLEOSIDE, NUCLEOTIDE, AND NUCLEIC ACID COMPOSITIONS” (Moderna Therapeutics, Inc., priority 2011, published 2016).

Assays:
G-CSF [1] = assay: Example 17 LNP in vivo study IV/IM/SC, serum G-CSF ELISA; details: rats, 0.05 mg/kg
Protocol: (§1) Formulations, listed in Table 31, were characterized by particle size, zeta potential, and encapsulation.
LNP formulations, shown in Table 31 (above), were administered to rats (n=5) intravenously (IV), intramuscularly (IM) or subcutaneously (SC) at a single modified mRNA dose of 0.05 mg/kg. A control group of rats (n=4) was untreated. […] The rats administered EPO modified mRNA intravenously were also bled at 7 days.

G-CSF [2] = assay: Example 18 time course in vivo study, serum G-CSF ELISA; details: mice IV
Protocol: as §1
LNP formulations, shown in Table 31 (above), were administered to mice (n=5) intravenously (IV) at a single modified mRNA dose of 0.5, 0.05 or 0.005 mg/kg. The mice were bled at 8 hours, 24 hours, 72 hours and 6 days after they were administered with G-CSF or EPO modified mRNA formulations to determine protein expression using ELISA.

neutrophils = assay: Example 22 non-human primate study, neutrophil count; assay type: in vivo, cynomolgus monkey
Protocol: (§2) LNP formulations, shown in Table 31 (above), were administered to non-human primates (NHP) (cynomolgus monkey) (n=2) as intravenous injection (IV). The NHP were administered a single modified mRNA IV dose of 0.5 mg/kg, 0.05 mg/kg or 0.005 mg/kg of G-CSF or EPO in a dose volume of 0.5 mL/kg. The NHPs were bled before dosing with the modified mRNA LNP formulations to determine protein expression in the serum and a baseline complete blood count. After administration with the G-CSF modified mRNA formulation the NHP were bled at 8, 24, 48 and 72 hours to determined protein expression. After administration with the EPO modified mRNA formulation the NHP were bled at 8, 24, 48, 72 hours and 7 days to determined protein expression.
Samples collected from the NHPs after they were administered with G-CSF or EPO modified mRNA formulations were analyzed by ELISA to determine protein expression. Neutrophil and reticulocyte count was also determined pre-dose, 24 hours, 3 days, 7 days, 14 days and 18 days after administration of the modified G-CSF or EPO formulation.

hemoglobin (HGB) = assay: Example 22 non-human primate study, hemoglobin (HGB); assay type: in vivo, cynomolgus monkey
Protocol: as §2

human G-CSF = assay: Example 32B human G-CSF modified RNA lipoplex IM/SC/IV, serum human G-CSF ELISA; assay type: in vivo, C57/BL6 mice; details: I.M., 100 μg, lipoplexed with 30% RNAIMAX, serum 6 hours
Protocol: 6 hours after administration of a formulation, serum was collected from each mouse to measure the amount of human G-CSF protein in the mouse serum by human G-CSF ELISA and the results are shown in Table 54.

IFN-alpha = assay: Example 45 cytokine study in PBMC, IFN-alpha ELISA; assay type: cell-based, human; details: human PBMC, Lipofectamine 2000
Protocol: The plates were then incubated at 37 C.
Each condition was done in duplicate.
Shown in Tables 69 and 70 are the average from 2 separate PBMC donors of the G-CSF and IFN-alpha production over time as measured by specific ELISA.

mice = assay: Saline formulation: human G-CSF / EPO in mouse serum; assay type: in vivo; details: 100 ug in F. buffer, bled 13 hours after injection, G-CSF group
Protocol: The mice were bled at 13 hours after the injection to determine the concentration of the human polypeptide in serum in pg/mL. (G-CSF groups measured human G-CSF in mouse serum and EPO groups measured human EPO in mouse serum).

[3] = Female NHP, 0.005 mg/kg, 14/18 days
[4] = Female NHP, 0.005 mg/kg, 24 hours
[5] = Female NHP, 0.005 mg/kg, 3 days
[6] = Female NHP, 0.005 mg/kg, 7 days
[7] = Female NHP, 0.005 mg/kg, Pre-dose
[8] = Female NHP, 0.05 mg/kg, 14/18 days
[9] = Female NHP, 0.05 mg/kg, 24 hours
[10] = Female NHP, 0.05 mg/kg, Pre-dose
[11] = Female NHP, 0.5 mg/kg, 14/18 days
[12] = Female NHP, 0.5 mg/kg, 24 hours
[13] = Female NHP, 0.5 mg/kg, Pre-dose
[14] = Male NHP, 0.005 mg/kg, 14/18 days
[15] = Male NHP, 0.005 mg/kg, 24 hours
[16] = Male NHP, 0.005 mg/kg, Pre-dose
[17] = Male NHP, 0.05 mg/kg, 14/18 days
[18] = Male NHP, 0.5 mg/kg, 14/18 days

B1: G-CSF: human G-CSF mRNA SEQ ID NO: 6, polyA ~160 nt, Cap1, fully modified with 5-methylcytosine and pseudouridine (nucleic acid, listed as Homo sapiens)
chain: GGGAAAUAAGAGAGAAAAGAAGAGUAAGAAGAAAUAUAAGAGCCACCAUGGCCGGUCCCGCGACCCAAAGCCCCAUGAAACUUAUGGCCCUGCAGUUGCUGCUUUGGCACUCGGCCCUCUGGACAGUCCAAGAAGCGACUCCUCUCGGACCUGCCUCAUCGUUGCCGCAGUCAUUCCUUUUGAAGUGUCUGGAGCAGGUGCGAAAGAUUCAGGGCGAUGGAGCCGCACUCCAAGAGAAGCUCUGCGCGACAUACAAACUUUGCCAUCCCGAGGAGCUCGUACUGCUCGGGCACAGCUUGGGGAUUCCCUGGGCUCCUCUCUCGUCCUGUCCGUCGCAGGCUUUGCAGUUGGCAGGGUGCCUUUCCCAGCUCCACUCCGGUUUGUUCUUGUAUCAGGGACUGCUGCAAGCCCUUGAGGGAAUCUCGCCAGAAUUGGGCCCGACGCUGGACACGUUGCAGCUCGACGUGGCGGAUUUCGCAACAACCAUCUGGCAGCAGAUGGAGGAACUGGGGAUGGCACCCGCGCUGCAGCCCACGCAGGGGGCAAUGCCGGCCUUUGCGUCCGCGUUUCAGCGCAGGGCGGGUGGAGUCCUCGUAGCGAGCCACCUUCAAUCAUUUUUGGAAGUCUCGUACCGGGUGCUGAGACAUCUUGCGCAGCCGUGAAGCGCUGCCUUCUGCGGGGCUUGCCUUCUGGCCAUGCCCUUCUUCUCUCCCUUGCACCUGUACCUCUUGGUCUUUGAAUAAAGCCUGAGUAGGAAG
modifications: polyA ~160, Cap1, 5mC/pseudouridine modified
G-CSF Serum Concentration (G-CSF [1]; IM, 2 hours): 1620.4 pg/mL | G-CSF Serum Concentration (G-CSF [1]; IM, 8 hours): 7910.4 pg/mL | G-CSF Serum Concentration (G-CSF [1]; IM, 24 hours): 893.3 pg/mL | G-CSF Serum Concentration (G-CSF [1]; IM, 48 hours): OSC | G-CSF Serum Concentration (G-CSF [1]; IM, 5 days): OSC | G-CSF detectable to (G-CSF [1]; IV): 7 days | G-CSF Serum Concentration (G-CSF [1]; IV, 2 hours): 31,331.9 pg/ml | G-CSF Serum Concentration (G-CSF [1]; IV, 8 hours): 70,532.4 pg/ml | G-CSF Serum Concentration (G-CSF [1]; IV, 24 hours): 5,738.6 pg/ml | G-CSF Serum Concentration (G-CSF [1]; IV, 48 hours): 233.8 pg/mL | G-CSF Serum Concentration (G-CSF [1]; IV, 5 days): 60.4 pg/mL | G-CSF Serum Concentration (G-CSF [1]; SC, 2 hours): 80.3 pg/mL | G-CSF Serum Concentration (G-CSF [1]; SC, 8 hours): 164.2 pg/mL | G-CSF Serum Concentration (G-CSF [1]; SC, 24 hours): OSC | G-CSF Serum Concentration (G-CSF [1]; SC, 48 hours): OSC | G-CSF Serum Concentration (G-CSF [1]; SC, 5 days): OSC | G-CSF detectable to at least (G-CSF [1]; subcutaneous and intramuscular): at least 8 hours | G-CSF protein expression detectable out to (G-CSF [2]; 0.005 mg/kg and 0.05 mg/kg): 72 h | G-CSF Serum Concentration (G-CSF [2]; 0.005 mg/kg, 8 hours): 11,550.6 pg/ml | G-CSF Serum Concentration (G-CSF [2]; 0.005 mg/kg, 24 hours): 5,068.9 pg/ml | G-CSF Serum Concentration (G-CSF [2]; 0.05 mg/kg, 8 hours): 462,312.5 pg/ml | G-CSF Serum Concentration (G-CSF [2]; 0.05 mg/kg, 24 hours): 80,903.8 pg/ml | G-CSF Serum Concentration (G-CSF [2]; 0.5 mg/kg, 8 hours): >1,250,000 pg/ml | G-CSF Serum Concentration (G-CSF [2]; 0.5 mg/kg, 24 hours): 495,812.5 pg/ml | G-CSF Serum Concentration (G-CSF [2]; 0.5 mg/kg, 72 hours): 1,325.6 pg/ml | Neutrophils (neutrophils; [3]): 2.28 10^9/L | Neutrophils (neutrophils; [4]): 8.6 10^9/L | Neutrophils (neutrophils; [5]): 1.78 10^9/L | Neutrophils (neutrophils; [6]): 2.27 10^9/L | Neutrophils (neutrophils; [7]): 2.54 10^9/L | Neutrophils (neutrophils; [8]): 1.82 10^9/L | Neutrophils (neutrophils; [9]): 29.91 10^9/L | Neutrophils (neutrophils; Female NHP, 0.05 mg/kg, 3 days): 10.77 10^9/L | Neutrophils (neutrophils; Female NHP, 0.05 mg/kg, 7 days): 3.8 10^9/L | Neutrophils (neutrophils; [10]): 3.05 10^9/L | Neutrophils (neutrophils; [11]): 1.98 10^9/L | Neutrophils (neutrophils; [12]): 13.96 10^9/L | Neutrophils (neutrophils; Female NHP, 0.5 mg/kg, 3 days): 13.7 10^9/L | Neutrophils (neutrophils; Female NHP, 0.5 mg/kg, 7 days): 3.81 10^9/L | Neutrophils (neutrophils; [13]): 1.27 10^9/L | Neutrophils (neutrophils; [14]): 4.31 10^9/L | Neutrophils (neutrophils; [15]): 16.44 10^9/L | Neutrophils (neutrophils; Male NHP, 0.005 mg/kg, 3 days): 3.74 10^9/L | Neutrophils (neutrophils; Male NHP, 0.005 mg/kg, 7 days): 7.28 10^9/L | Neutrophils (neutrophils; [16]): 1.52 10^9/L | Neutrophils (neutrophils; [17]): 3.59 10^9/L | Neutrophils (neutrophils; Male NHP, 0.05 mg/kg, 24 hours): 19.92 10^9/L | Neutrophils (neutrophils; Male NHP, 0.05 mg/kg, 3 days): 7.49 10^9/L | Neutrophils (neutrophils; Male NHP, 0.05 mg/kg, 7 days): 4.13 10^9/L | Neutrophils (neutrophils; Male NHP, 0.05 mg/kg, Pre-dose): 13.74 10^9/L | Neutrophils (neutrophils; [18]): 2.58 10^9/L | Neutrophils (neutrophils; Male NHP, 0.5 mg/kg, 24 hours): 14.92 10^9/L | Neutrophils (neutrophils; Male NHP, 0.5 mg/kg, 3 days): 9.76 10^9/L | Neutrophils (neutrophils; Male NHP, 0.5 mg/kg, 7 days): 2.74 10^9/L | Neutrophils (neutrophils; Male NHP, 0.5 mg/kg, Pre-dose): 1.53 10^9/L | neutrophils relative to pre-dose levels (neutrophils; NHP, all G-CSF groups): increase in neutrophils | HGB (hemoglobin (HGB); [3]): 129 g/L | HGB (hemoglobin (HGB); [4]): 127 g/L | HGB (hemoglobin (HGB); [5]): 127 g/L | HGB (hemoglobin (HGB); [6]): 129 g/L | HGB (hemoglobin (HGB); [7]): 129 g/L | HGB (hemoglobin (HGB); [8]): 123 g/L | HGB (hemoglobin (HGB); [9]): 117 g/L | HGB (hemoglobin (HGB); Female NHP, 0.05 mg/kg, 3 days): 115 g/L | HGB (hemoglobin (HGB); Female NHP, 0.05 mg/kg, 7 days): 116 g/L | HGB (hemoglobin (HGB); [10]): 129 g/L | HGB (hemoglobin (HGB); [11]): 113 g/L | HGB (hemoglobin (HGB); [12]): 112 g/L | HGB (hemoglobin (HGB); Female NHP, 0.5 mg/kg, 3 days): 114 g/L | HGB (hemoglobin (HGB); Female NHP, 0.5 mg/kg, 7 days): 116 g/L | HGB (hemoglobin (HGB); [13]): 129 g/L | HGB (hemoglobin (HGB); [14]): 118 g/L | HGB (hemoglobin (HGB); [15]): 117 g/L | HGB (hemoglobin (HGB); Male NHP, 0.005 mg/kg, 3 days): 116 g/L | HGB (hemoglobin (HGB); Male NHP, 0.005 mg/kg, 7 days): 116 g/L | HGB (hemoglobin (HGB); [16]): 128 g/L | HGB (hemoglobin (HGB); [17]): 134 g/L | HGB (hemoglobin (HGB); Male NHP, 0.05 mg/kg, 24 hours): 122 g/L | HGB (hemoglobin (HGB); Male NHP, 0.05 mg/kg, 3 days): 126 g/L | HGB (hemoglobin (HGB); Male NHP, 0.05 mg/kg, 7 days): 126 g/L | HGB (hemoglobin (HGB); Male NHP, 0.05 mg/kg, Pre-dose): 137 g/L | HGB (hemoglobin (HGB); [18]): 98 g/L | HGB (hemoglobin (HGB); Male NHP, 0.5 mg/kg, 24 hours): 113 g/L | HGB (hemoglobin (HGB); Male NHP, 0.5 mg/kg, 3 days): 118 g/L | HGB (hemoglobin (HGB); Male NHP, 0.5 mg/kg, 7 days): 115 g/L | HGB (hemoglobin (HGB); Male NHP, 0.5 mg/kg, Pre-dose): 133 g/L | G-CSF (human G-CSF): 85.6 pg/mL | innate immune recognition, cytokine production (IFN-alpha and others) (IFN-alpha): induced IFN-alpha, TNF-alpha and IP10 | Average Protein Product, serum (human G-CSF) (mice): 45 pg/mL
